This is an account of results in publication PMC9798254.

In general, Km refers to the substrate concentration at which the rate is half of its maximum. As a reminder, the kcat is the number of substrate molecules converted per active site and unit of time at saturation. One may read the kcat/Km as the turnover number divided by the Michaelis constant.

In this series the test system is N[C@H](COP(=O)(O)O)Cc1c[nH]cn1. Nature of the series: purified protein. The conditions noted are these: 100 mM Tris/HCl pH 7.8, 5 mM MgCl2, 25°C.

On to ecHisB‐N (Escherichia coli K-12), for which the Km came to 48 ± 3 µM, the kcat was 2.8 ± 0.1 s⁻¹ and the kcat/Km worked out at 58000 M⁻¹ s⁻¹.
